We go through two molecules from patent publication US20200010519A1, “NUCLEASE FUSIONS FOR ENHANCING GENOME EDITING BY HOMOLOGY-DIRECTED TRANSGENE INTEGRATION” (INSTITUT NATIONAL DE LA SANTE ET DE LA RECHERCHE …, priority 2017, published 2020).

For the experiment, the system named is AAVS1 locus. In words: HDI of GFP cDNA at AAVS1 locus, FACS analysis, HEK293 cells. The class given is cell-based, human.

B1: HE3: Cas9 fused to HE3 (166-296 aa of CtIP; SEQ ID NO. 14) containing the 3 CDK phosphorylation sites (protein, UniProt Q99708 166-296, looked up, fragment)
chain: TAFSFSGVNRLRRKENPHVRYIEQTHTKLEHSVCANEMRKVSKSSTHPQHNPNENEILVADTYDQSQSPMAKAHGTSSYTPDKSSFNLATVVAETLGLGVQEESETQGPMSPLGDELYHCLEGNHKKQPFE
modifications: fused to Cas9
notes: Cas9 fused to HE3 (166-296 aa of CtIP; 14) containing the 3 CDK phosphorylation sites
For the molecule B1, the “HDI of GFP cDNA (homology-directed insertion of the GFP donor)” value is listed as “HE1 was the only fragment shown to significantly stimulate”.

B2: HE2: Cas9 fused to HE2 (46-296 aa of CtIP; SEQ ID NO. 13), lacking the first 45 aa (protein, UniProt Q99708 46-296, looked up, fragment)
chain: KQERILDAQRLEEFFTKNQQLREQQKVLHETIKVLEDRLRAGLCDRCAVTEEHMRKKQQEFENIRQQNLKLITELMNERNTLQEENKKLSEQLQQKIENDQQHQAAELECEEDVIPDSPITAFSFSGVNRLRRKENPHVRYIEQTHTKLEHSVCANEMRKVSKSSTHPQHNPNENEILVADTYDQSQSPMAKAHGTSSYTPDKSSFNLATVVAETLGLGVQEESETQGPMSPLGDELYHCLEGNHKKQPFE
modifications: fused to Cas9
notes: Cas9 fused to HE2 (46-296 aa of CtIP; 13), lacking the first 45 aa
B2: the “HDI of GFP cDNA (homology-directed insertion of the GFP donor)” value was “HE1 was the only fragment shown to significantly stimulate”.
